Data: publication PMC8800519 (Journal of Molecular Cell Biology, 2021)

Target: recombinant mouse α1C/β2A tubulin heterodimer (mouse, UniProt P68373;Q7TMM9)
Assay: single-molecule TIRF microscopy

recombinant mouse α1C/β2A tubulin heterodimer, sequence (P68373 whole entry, one chain of several): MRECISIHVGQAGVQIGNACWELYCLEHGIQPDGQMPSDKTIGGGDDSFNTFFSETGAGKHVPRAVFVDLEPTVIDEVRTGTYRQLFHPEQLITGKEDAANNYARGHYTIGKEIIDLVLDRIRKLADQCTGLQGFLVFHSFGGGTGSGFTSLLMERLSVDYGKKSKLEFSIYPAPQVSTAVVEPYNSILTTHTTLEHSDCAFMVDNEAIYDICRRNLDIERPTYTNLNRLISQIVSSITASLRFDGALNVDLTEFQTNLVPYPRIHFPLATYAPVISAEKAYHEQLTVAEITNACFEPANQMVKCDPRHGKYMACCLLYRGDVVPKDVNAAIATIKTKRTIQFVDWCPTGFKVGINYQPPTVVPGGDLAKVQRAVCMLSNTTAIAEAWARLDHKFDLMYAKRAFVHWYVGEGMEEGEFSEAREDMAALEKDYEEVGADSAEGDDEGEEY

binding result: binds
B1: EB1-GFP (full-length human EB1 with a GFP tag) (natural protein)
chain: MAVNVYSTSVTSDNLSRHDMLAWINESLQLNLTKIEQLCSGAAYCQFMDMLFPGSIALKKVKFQAKLEHEYIQNFKILQAGFKRMGVDKIIPVDKLVKGKFQDNFEFVQWFKKFFDANYDGKDYDPVAARQGQETAVAPSLVAPALNKPKKPLTSSSAAPQRPISTQRTAAAPKAGPGVVRKNPGVGNGDDEAAELMQQVNVLKLTVEDLEKERDFYFGKLRNIELICQENEGENDPVLQRIVDILYATDEGFVIPDEGGPQEEQEEY
